# In patent US9863962, “Aptamers and sensing technology used for detection of glycated hemoglobin in whole blood” (Alfaisal University):
# B1: G15 (ssDNA)
# DNA: ACGCACACCAGAGACAAGTAGCCCCCCAAACGCGGCCACGGAACGCAGCACCTCCATGGC
# B2: thiol-G15 (ssDNA)
# DNA: B1 DNA
# modifications: 5' HS-(CH2)6
# B3: G20 (ssDNA)
# DNA: GGGGACACAGCAACACACCCACCCACCAGCCCCAGCATCATGCCCATCCGTCGTGTGTG
# B4: thiol-G20 (ssDNA)
# DNA: B3 DNA
# modifications: 5' HS-(CH2)6
# B5: G18 (ssDNA)
# DNA: GGCCACAGCAGCCAGTACACCCACCCACCAGCCCCGTCAACGACCTGAACCTGCCCTGTGTG
# B6: G11 (ssDNA)
# DNA: CGACACCAGCACACAGACCCGAGACACACGTCAGATCAACAGCGACCGTATCATTGGTTG
# B7: G4 (ssDNA)
# DNA: GGGCCGACGGGAGGGGGAGGGAGAGCAATACGAGGTGGGATGGCAGATTATGGGTGCACT
# B8: G23 (ssDNA)
# DNA: GGACACGGCAAAGGGGTATAGCCTACCGGACCGTGGACATGGAATTGTGTGCTGCGTGG
# Experiments:
# [1] = target: T1, bovine serum albumin (BSA) (Bos taurus, UniProt P02769 P02769:25-607); test: impedance; specificity control; details: tags: none; Sigma
# T1 sequence (P02769 25-607, one chain of several): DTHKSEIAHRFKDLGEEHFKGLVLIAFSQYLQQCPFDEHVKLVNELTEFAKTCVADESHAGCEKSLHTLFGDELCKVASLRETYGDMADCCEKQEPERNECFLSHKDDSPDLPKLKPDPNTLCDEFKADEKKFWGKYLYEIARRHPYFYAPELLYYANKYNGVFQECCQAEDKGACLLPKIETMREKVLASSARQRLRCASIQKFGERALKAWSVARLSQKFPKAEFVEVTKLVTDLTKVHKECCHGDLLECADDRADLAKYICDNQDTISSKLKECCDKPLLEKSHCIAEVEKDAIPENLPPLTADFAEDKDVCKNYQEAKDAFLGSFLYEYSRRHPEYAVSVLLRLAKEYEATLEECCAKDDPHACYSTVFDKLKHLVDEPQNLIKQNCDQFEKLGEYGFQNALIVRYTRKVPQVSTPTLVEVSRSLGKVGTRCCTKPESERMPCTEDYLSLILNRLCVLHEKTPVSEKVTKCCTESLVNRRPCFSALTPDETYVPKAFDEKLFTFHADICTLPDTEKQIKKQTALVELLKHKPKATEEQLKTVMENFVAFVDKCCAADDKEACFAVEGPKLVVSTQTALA
# Protocol: The binding specificity of the HbA1C aptamer (G20) was also confirmed by incubating the HbA1C modified electrode with different concentrations of non glycated Hb and BSA as control. No significant response was obtained for the non specific proteins which indicates excellent specificity of the selected aptamer (FIG. 3). Similarly, the specificity of the tHb aptamer (G15) was verified against BSA as control. The two aptamers, G15 and G20, were then applied for Hb and HbA1C detection a microarray platform.
# [2] = target: T2, glycated hemoglobin HbA1c (UniProt P69905;P68871 P69905:2-142,P68871:2-147); test: electrochemical impedance on HbA1C-gold electrode; 50 mM Tris pH 7.5, 150 mM NaCl, 2 mM MgCl2; details: tags: none; purified HbA1C from Monojo (Amman, Jordan); immobilized on cysteamine/PDITC gold electrode; chain copies: 2
# T2 sequence (P69905 2-142, chain 1 of 2): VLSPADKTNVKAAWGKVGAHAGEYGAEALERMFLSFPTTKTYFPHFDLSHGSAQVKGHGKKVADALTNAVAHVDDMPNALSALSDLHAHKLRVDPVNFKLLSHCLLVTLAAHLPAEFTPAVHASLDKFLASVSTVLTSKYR
# T2 sequence (P68871 2-147, chain 2 of 2): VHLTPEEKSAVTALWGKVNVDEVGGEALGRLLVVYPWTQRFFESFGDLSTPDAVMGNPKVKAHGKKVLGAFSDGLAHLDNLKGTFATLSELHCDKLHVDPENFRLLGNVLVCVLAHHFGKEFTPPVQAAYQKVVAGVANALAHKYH
# Protocol: (§1) Binding analysis of the aptamer sequences to Hb and HbA1C: In order to test the binding affinity of the aptamer sequences to their protein targets, some representative sequences were synthesized after eliminating the primers sequence. A solution of 25 nM from each aptamer sequence in binding buffer was incubated with the Hb and HbA1C-modified electrodes (described in section 2.3.4) for 30 min. The electrodes were then washed with binding buffer and impedance measurements were recorded in 5 mM [Fe(CN)_6]^{3-/4-} redox couple. The binding was then evaluated by calculating the % $RCT$ change)((R−R°/R°%).
# (§2) A significant change in the $Rct$ after the incubation of most of the tested aptamers with the HbA1C electrodes while no response was obtained with scrambled DNA sequence (control DNA) indicating specific binding of the aptamers to HbA1C. […] The highest change in EIS signal was obtained for aptamers G11, G23, G18, G20, G15, therefore these aptamers were subjected to further analysis to assess their binding affinity. The dissociation constants were determined by incubating different concentrations of the aptamers with Hb and HbA1C-modified electrodes. […] The K_d were then calculated from the binding curve using non linear regression analysis. […] Four HbA1C-specific aptamers with high affinity and specificity were obtained (G11, G18, G20, G23). […]
# [3] = target: T3, hemoglobin (Hb, non-glycated / total Hb) (UniProt P69905;P68871 P69905:2-142,P68871:2-147); test: electrochemical impedance on Hb-gold electrode; 50 mM Tris pH 7.5, 150 mM NaCl, 2 mM MgCl2; details: tags: none; purified Hb from Monojo (Amman, Jordan); immobilized on cysteamine/PDITC gold electrode; chain copies: 2
# T3 sequence (P69905 2-142, chain 1 of 2): as the sequence (P69905 2-142, chain 1 of 2) above
# T3 sequence (P68871 2-147, chain 2 of 2): as the sequence (P68871 2-147, chain 2 of 2) above
# Protocol: as §1, §2
# [4] = target: T1, bovine serum albumin (BSA); test: square wave voltammetry; no response with BSA; details: tags: none; Sigma
# Protocol: (§3) For the Hb and HbA1C detection and selectivity experiments, each aptamer-modified electrode on the aptasensor array chip was incubated for 30 min with specific concentrations of Hb and HbA1C standard solutions. The electrodes were then washed with 50 mM Tris-HCl buffer pH 7.4 and subjected to square wave voltammetry (SWV) measurements in 10 mM [Fe(CN)_6]^{3-/4-} redox couple in 0.1 M PBS buffer solution. The parameters used for the SWV measurements: amplitude 20 mV; interval time 0.04 s; step potential −5 mV; scan rate 125 mV s-1, and frequency 25 Hz. The cyclic voltammetry (CV) experiments were conducted at a scan rate of 100 mV/s.
# (§4) Dose response of the aptasensors: The aptasensors voltammetric response toward tHb and HbA1C was measured in the concentration range of 100 pg/mL to 10 µg/mL. […] Three independent measurements were done for each data point in order to assess the reproducibility of the aptasensors array. […] The linear regression equation of the HbA1C aptasensor is (i°–i)/ i°%=45.0+14.6×log C [ng/ml], R=0.997, with a detection limit (LOD) of 0.2 ng/mL and for the tHb: (i°−i)/i°%=42.5+20.2×log C [ng/ml], R=0.98, with LOD=0.34 ng/ml. The LOD was calculated from 3(S_{y/x}/m), where S_{y/x} is the standard error of estimate and m is the slope of the calibration curve. […]
# [5] = target: T3, hemoglobin (Hb, non-glycated / total Hb); test: square wave voltammetry aptasensor on AuNP electrode; LOD 0.34 ng/mL; details: tags: none; purified Hb from Monojo (Amman, Jordan); immobilized on cysteamine/PDITC gold electrode; chain copies: 2
# Protocol: as §3, §4
# [6] = target: T1, bovine serum albumin (BSA); test: impedance; no significant response; details: tags: none; Sigma
# [7] = target: T2, glycated hemoglobin HbA1c; test: square wave voltammetry aptasensor on AuNP electrode; LOD 0.2 ng/mL; details: tags: none; purified HbA1C from Monojo (Amman, Jordan); immobilized on cysteamine/PDITC gold electrode; chain copies: 2
# Protocol: as §3, §4
# [8] = target: T2, glycated hemoglobin HbA1c; test: impedance; HbA1C-specific, Kd stated only as nanomolar range; details: tags: none; purified HbA1C from Monojo (Amman, Jordan); immobilized on cysteamine/PDITC gold electrode; chain copies: 2
# Protocol: as §1
# A significant change in the $Rct$ after the incubation of most of the tested aptamers with the HbA1C electrodes while no response was obtained with scrambled DNA sequence (control DNA) indicating specific binding of the aptamers to HbA1C. […] The highest change in EIS signal was obtained for aptamers G11, G23, G18, G20, G15, therefore these aptamers were subjected to further analysis to assess their binding affinity. The dissociation constants were determined by incubating different concentrations of the aptamers with Hb and HbA1C-modified electrodes. […] The K_d were then calculated from the binding curve using non linear regression analysis. […] Four HbA1C-specific aptamers with high affinity and specificity were obtained (G11, G18, G20, G23). […] The aptamer sequences may be made in full or part of it may be used for binding studies. Thus, from our SELEX screening, an aptamer that bind to the tHb (G15) as well as specific aptamers to HbA1C (G20) were obtained.
# [9] = target: T2, glycated hemoglobin HbA1c; test: impedance screen at 25 nM aptamer; lower signal than top five; details: tags: none; purified HbA1C from Monojo (Amman, Jordan); immobilized on cysteamine/PDITC gold electrode; chain copies: 2
# Protocol: as §1
# Binding affinity analysis of the aptamers: Eight representative sequences were subjected to initial binding analysis. Initial screening of the aptamer sequences (G11, G23, G20, G18, G15, G10, G22, G4) was performed using EIS to confirm their successful binding to HbA1C (FIG. 2A).
binder,measurement,setting,value
B1,binding result,[1],no binding
same,Kd,[2],3.3 nM
same,Kd,[3],2.7 nM
B2,binding result,[4],no binding
same,binding result,[5],binds
B3,Kd,[2],2.8 nM
same,binding result,[6],no binding
B4,binding result,[4],no binding
same,binding result,[7],binds
B5,binding result,[8],binds
B6,binding result,[8],binds
B7,binding result,[9],binds
B8,binding result,[8],binds
